Experiment [1] addresses NgCAM, recombinant, expressed on the surface of COS-7 cells (chicken). Put plainly: binding of protein-conjugated fluorescent microspheres.
The target in experiment [2] is axonin-1, recombinant, expressed on the surface of COS-7 cells (chicken) (UniProt P28685). Described as above.

“NgCAM purified from chicken brain membranes, conjugated to Covaspheres (from UniProt Q03696 21-1266) (natural protein)”: the percent of expressing cells that bound Covaspheres in experiment [1] worked out at 61%; in experiment [2] it was 15%.

B1: axonin-1 purified from the ocular vitreous fluid of chicken embryos, conjugated to Covaspheres (natural protein)
chain: QSGMRSYGPVFEEQPAHTLFPEGSAEEKVTLTCRARANPPATYRWKMNGTELKMGPDSRYRLVAGDLVISNPVKAKDAGSYQCVATNARGTVVSREASLRFGFLQEFSAEERDPVKITEGWGVMFTCSPPPHYPALSYRWLLNEFPNFIPADGRRFVSQTTGNLYIAKTEASDLGNYSCFATSHIDFITKSVFSKFSQLSLAAEDARQYAPSIKAKFPADTYALTGQMVTLECFAFGNPVPQIKWRKLDGSQTSKWLSSEPLLHIQNVDFEDEGTYECEAENIKGRDTYQGRIIIHAQPDWLDVITDTEADIGSDLRWSCVASGKPRPAVRWLRDGQPLASQNRIEVSGGELRFSKLVLEDSGMYQCVAENKHGTVYASAELTVQALAPDFRLNPVKRLIPAARSGKVIIPCQPRAAPKATVLWTKGTELLTNSSRVTITADGTLILQNISKSDEGKYTCFAENFMGKANSTGILSVRDATKITLAPSSADINVGENLTLQCHASHDPTMDLTFTWSLDDFPIDLDKSEGHYRRASVKEAVGDLAIVNAQLKHSGRYTCTAQTVVDSTSESATLTVRGPPGPPGGVVVRDIGDTTVQLSWSRGFDNHSPIARYSIEARTLLSNKWKQMRTNPVNIEGNAETAQVVNLIPWMDYEFRVLASNILGVGEPSLPSSKIRTKEAAPTVAPSGLGGGGGAPNELIINWTPTLRDYQNGDGFGYILSFRKKGTQGWLTARVPHAESLHYVYRNESIGPYTPFEVKIKAYNRKGEGPESLTAIVYSAEEEPKVAPFRVTAKAVLSSEMDVSWEPVEQGDMTGVLLGYEIRYWKDGDKEEAADRVRTAGLVTSAHVTGLNPNTKYHVSVRAYNRAGAGPPSPSTNITTTKPPPRRPPGNISWTLTGSTVTIKWDPVVAQADESAVTGYKMLYRQDSHSAPTLYLASKSRIDIPVPEDFTHAFVQIRVTGPGGDGTPAEVHIVRNSGTSMMVEDSVTRPVPHAAIITTNSLAMVALIRYLEL
As to B1, the percent of expressing cells that bound Covaspheres in experiment [1] is 53%.

Source of the values: publication PMC2133975.
